From patent publication US20190316211A1, “ONCOGENIC ALTERNATIVE SPLICING SWITCH OF PACE4 IN CANCER” (SOCIETE DE COMMERCIALISATION DES PRODUITS DE LA RECHERCHE …, priority 2016, published 2019)

What was measured:
[1] = biological target: T1, recombinant PACE4 (Homo sapiens, UniProt P29122); experiment: GDF-15 spanning peptide cleavage monitored by HPLC; type: biochemical; conditions: 37° C., 1 h, pH 7.5
T1 construct: made in house; host or cells: S2 cells
T1 sequence (P29122 150-969): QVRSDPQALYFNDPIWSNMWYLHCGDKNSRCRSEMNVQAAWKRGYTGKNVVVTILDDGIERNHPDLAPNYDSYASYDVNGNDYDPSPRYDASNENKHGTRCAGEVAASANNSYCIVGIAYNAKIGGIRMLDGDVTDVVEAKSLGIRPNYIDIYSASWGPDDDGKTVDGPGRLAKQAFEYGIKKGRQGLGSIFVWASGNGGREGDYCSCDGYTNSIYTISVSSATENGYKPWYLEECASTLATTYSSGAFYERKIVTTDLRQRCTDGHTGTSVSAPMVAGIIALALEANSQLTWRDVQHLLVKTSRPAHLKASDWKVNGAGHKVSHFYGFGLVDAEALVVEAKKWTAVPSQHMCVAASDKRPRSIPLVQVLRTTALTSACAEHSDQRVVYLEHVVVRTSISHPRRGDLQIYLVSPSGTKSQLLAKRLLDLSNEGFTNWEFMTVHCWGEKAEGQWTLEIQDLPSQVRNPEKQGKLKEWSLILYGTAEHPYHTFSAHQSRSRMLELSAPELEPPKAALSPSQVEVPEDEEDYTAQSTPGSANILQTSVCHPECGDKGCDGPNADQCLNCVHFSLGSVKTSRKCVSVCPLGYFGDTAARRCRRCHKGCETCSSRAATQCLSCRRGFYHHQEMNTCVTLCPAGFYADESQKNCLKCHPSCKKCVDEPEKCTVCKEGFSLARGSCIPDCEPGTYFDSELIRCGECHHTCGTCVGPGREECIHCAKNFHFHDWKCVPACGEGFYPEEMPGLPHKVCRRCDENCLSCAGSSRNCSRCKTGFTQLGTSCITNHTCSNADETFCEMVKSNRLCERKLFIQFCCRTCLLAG
Excerpt: (§1) GDF-15 is known to supports both the proliferation and clonogenic potential of LNCaP cells, which is also in line with the observed phenotypes for both PACE4 knockdown and overexpressing cells. This protein is synthetized as a 35 kDa proprotein which requires a PC-based cleavage at the […]^196↓, site to generate a ˜17 kDa C-terminal mature form that associates as a disulfide-linked dimer further secreted in the medium. GDF-15 is only detected in LNCaP cells whereas DU145 express very low levels in both medium and cell lysates (FIGS. 10C and D). […]
(§2) GDF-15 peptide (40 μg) was incubated at 37° C. with recombinant PACE4 or soluble furin (16U) in 100 mM Hepes buffer containing 1 mM CaCl2, 1 mM 3-mercaptoethanol, and 1.8 mg/mL BSA, pH 7.5 (total sample volume: 300 μl) over a period of 1 h. […] After incubation, the reactions were immediately analyzed by the analytical HPLC (Agilent Technologies, 1100 series with a diode array detector and a fraction collector; injection volume: 95 μl, gradient: 2 to 25% […] in 50 min; [A]0.1% aq TFA and [B] acetonitrile+0.1% aq TFA; column: an Agilent Eclipse XDB C18 column (5 μm, 4.6×250 mm). The collected fractions were analysed by SELDI-TOF mass spectrometer (Bio-Rad Laboratories) to identify the cleavage product.

[2] = biological target: T2, soluble furin (Homo sapiens, UniProt P09958); experiment: GDF-15 spanning peptide cleavage monitored by HPLC; type: biochemical; conditions: 37° C., 1 h, pH 7.5
T2 construct: recombinant PACE4 or soluble furin (16U); made in house; host or cells: S2 cells (said of recombinant PCs in general)
Excerpt: as §1, §2

T2 sequence (P09958 108-715 limits assumed): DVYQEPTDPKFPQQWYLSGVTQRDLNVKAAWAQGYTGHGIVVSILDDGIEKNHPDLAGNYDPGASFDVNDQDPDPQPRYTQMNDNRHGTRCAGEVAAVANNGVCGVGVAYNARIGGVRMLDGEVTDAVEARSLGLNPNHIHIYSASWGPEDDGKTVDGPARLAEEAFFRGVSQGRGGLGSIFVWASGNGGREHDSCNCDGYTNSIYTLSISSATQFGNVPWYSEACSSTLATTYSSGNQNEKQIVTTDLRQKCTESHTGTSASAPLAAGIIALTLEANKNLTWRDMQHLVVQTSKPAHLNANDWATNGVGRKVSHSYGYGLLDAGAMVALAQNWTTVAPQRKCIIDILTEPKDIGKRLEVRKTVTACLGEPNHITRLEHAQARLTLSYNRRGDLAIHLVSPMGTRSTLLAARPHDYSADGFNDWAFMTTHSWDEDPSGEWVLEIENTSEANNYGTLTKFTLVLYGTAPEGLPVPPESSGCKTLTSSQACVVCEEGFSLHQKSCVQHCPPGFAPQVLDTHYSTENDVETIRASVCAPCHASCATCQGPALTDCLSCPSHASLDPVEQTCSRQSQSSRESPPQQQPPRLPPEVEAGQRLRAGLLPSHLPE

cleavage of peptide at the QAARGRRRAR site [1]: cleaved by both PCs
cleavage of peptide at the QAARGRRRAR site [2]: cleaved by both PCs
Sequence: QAARGRRRARARNG (Ac-QAARGRRRARARNG-NH2) [synthetic N-acetylated peptide spanning the GDF-15 cleavage site]
